In patent US20040248244:

Experiments:
[1] = tested on: GST fusion protein containing the first 70 amino acids of p53 (GST-p531-70)
[2] = target: GST-hUpf11019-1118 (GST fused to the carboxyl-terminal region of hUpf1, amino acids 1019-1118) (UniProt Q92900)
PHAS-I/4E-BP1 protein = PHAS-I/4E-BP1 protein (UniProt Q13541)
Sequence of PHAS-I/4E-BP1 protein (Q13541 whole entry): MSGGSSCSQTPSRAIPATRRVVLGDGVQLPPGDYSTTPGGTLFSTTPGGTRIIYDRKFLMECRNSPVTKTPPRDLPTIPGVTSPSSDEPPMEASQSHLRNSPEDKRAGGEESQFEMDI

Sequence of GST fusion protein containing the first 70 amino acids of p53 (GST-p531-70) (chain, as listed by the source): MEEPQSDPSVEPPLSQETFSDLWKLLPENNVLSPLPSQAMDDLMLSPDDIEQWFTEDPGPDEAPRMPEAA
Sequence of GST-hUpf11019-1118 (GST fused to the carboxyl-terminal region of hUpf1, amino acids 1019-1118) (Q92900 1019-1118): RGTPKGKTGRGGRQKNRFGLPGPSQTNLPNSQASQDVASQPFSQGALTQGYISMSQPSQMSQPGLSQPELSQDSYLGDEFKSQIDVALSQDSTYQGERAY

Substance | specific kinase activity in immune complex kinase assay [1] | phosphorylation of substrate in immune complex kinase assay [2] | phosphorylation of substrate in immune complex kinase assay, compared with GST-hUpf11019-1118 [1] | specific kinase activity in immune complex kinase assay (ratio of 32P incorporation into substrate to level of HA-tagged kinase) [1] | phosphorylation of substrate in immune complex kinase assay (GST-p531-70(S15A)) | phosphorylation of substrate in immune complex kinase assay (PHAS-I/4E-BP1 protein)
HA-tagged wild-type ATM (HA-ATMWT) | the specific kinase activity of HA-ATXWT towards GST-p531-70 was significantly higher than that of HA-ATM | phosphorylated by both ATM and ATX |  |  |  | 
HA-tagged wild-type ATX (HA-ATXWT) |  | phosphorylated by both ATM and ATX, with the latter protein kinase showing the higher specific catalytic activity | GST-p531-70 was more avidly phosphorylated by ATX than was the GST-hUpf11019-1118 substrate | the specific kinase activity of ATXWT was approximately 3.5-fold higher than that of ATMWT | nearly abolished | poorly phosphorylated
